Measured values published in paper PMC7946891, “Versatility in acyltransferase activity completes chicoric acid biosynthesis in purple coneflower” (Nature Communications, 2021).

Assays:
[1] = substrate: CC(C)(COP(=O)(O)OP(=O)(O)OC[C@H]1O[C@@H](n2cnc3c(N)ncnc32)[C@H](O)[C@@H]1OP(=O)(O)O)[C@@H](O)C(=O)NCCC(=O)NCCSC(=O)/C=C/c1ccc(O)c(O)c1; assay: UPLC-DAD endpoint assay, Michaelis-Menten; assay type: biochemical, Echinacea purpurea; details: PBS pH 7.0, 30 °C
[2] = substrate: CC(C)(COP(=O)(O)OP(=O)(O)OC[C@H]1O[C@@H](n2cnc3c(N)ncnc32)[C@H](O)[C@@H]1OP(=O)(O)O)[C@@H](O)C(=O)NCCC(=O)NCCSC(=O)/C=C/c1ccc(O)cc1; assay: UPLC-DAD endpoint assay, Michaelis-Menten; assay type: biochemical, Echinacea purpurea; details: PBS pH 7.0, 30 °C
[3] = substrate: COc1cc(/C=C/C(=O)SCCNC(=O)CCNC(=O)[C@H](O)C(C)(C)COP(=O)(O)OP(=O)(O)OC[C@H]2O[C@@H](n3cnc4c(N)ncnc43)[C@H](O)[C@@H]2OP(=O)(O)O)ccc1O; assay: UPLC-DAD endpoint assay, Michaelis-Menten; assay type: biochemical, Echinacea purpurea; details: PBS pH 7.0, 30 °C
[4] = substrate: O=C(O)[C@]1(O)C[C@@H](O)[C@@H](O)[C@H](O)C1; assay: UPLC-DAD endpoint assay, Michaelis-Menten; assay type: biochemical, Echinacea purpurea; details: 50 μM caffeoyl CoA, PBS pH 7.0, 30 °C
purified protein [5] = substrate: O=C(/C=C/c1ccc(O)c(O)c1)O[C@@H]1C[C@](O)(C(=O)O)C[C@@H](O)[C@H]1O; assay: purified protein; details: 200 μM caftaric acid as acyl acceptor, 10 mM Na2HPO4, pH 4.0, 30 °C, pH 4.0
purified protein [6] = substrate: O=C(/C=C/c1ccc(O)c(O)c1)O[C@@H](C(=O)O)[C@@H](O)C(=O)O; assay: purified protein; assay type: biochemical, Echinacea purpurea; details: 200 μM chlorogenic acid as acyl donor, 10 mM Na2HPO4, pH 4.0, 30 °C
purified protein [7] = substrate: O=C(/C=C/c1ccc(O)c(O)c1)O[C@@H]1O[C@H](CO)[C@@H](O)[C@H](O)[C@H]1O; assay: purified protein; assay type: biochemical, Echinacea purpurea; details: 200 μM caftaric acid as acyl acceptor, 10 mM Na2HPO4, pH 4.0, 30 °C
purified protein [8] = substrate: O=C(O)C(O)C(O)C(=O)O; assay: purified protein; details: 50 μM caffeoyl CoA, PBS pH 7.0, 30 °C, pH 7.0
[9] = substrate: O=C(O)C(O)C(O)C(=O)O; assay: purified protein, by the assay type; set-up: Michaelis-Menten kinetics of recombinant EpHTT, product quantified by UPLC-DAD; details: pH 7.0; 16.0 °C

B1: EpHQT (Echinacea purpurea) (protein)
chain: MNITITKSSLIPPSETLPGSETRLWTSNLDLVVGRIHILTVYFYRPNGSSNFFDPNAMKQALADVLVSFYPMAGRLGRDESGRVVINCNGEGALFVEAEADSCLDDFGEFTPSPELRSLTPAVDYSGDVSSYPLFFAQVTHFKCGGVSLGCGVFHTLSDGLSSLHFINTWSDVARGLSVAIPPFIDRTLLRAREPPTPTHDHVEYHPPPTMTMLNTIQKPGPLSKSSTTMLKLTLDQLNTLKAKTKTEGGPSYSTYEILAAHIWRCACKARGLPDDQLTKLYVATDGRSRLSPHLPRGYLGNVVFTATPVATSGALTSDSLQNAAKLIHTTLTQMDNEYLRSAIDYLEIQPDLSALIRGPSYFASPNLNINAWSRLPVHDADFGWGRPVFMGPAIILYEGTVYVLPSPNNDRSVSLAVCLDAKEQPLFEKYLYEF
notes: full-length CDS, N-terminal 6xHis (pDEST17), E. coli BL21(DE3), Ni-NTA purified
Km ([1]; 1 mM quinic acid): 7.231 ± 1.577 µM | kcat ([1]; 1 mM quinic acid): 0.111 ± 0.005 s⁻¹ | Km ([2]; 1 mM quinic acid): 70.547 ± 43.952 µM | kcat ([2]; 1 mM quinic acid): 0.060 ± 0.036 s⁻¹ | Km ([3]; 1 mM quinic acid): 38.623 ± 14.588 µM | kcat ([3]; 1 mM quinic acid): 0.0007 ± 0.00009 s⁻¹ | Km [4]: 576.167 ± 72.176 µM | kcat [4]: 0.157 ± 0.007 s⁻¹

B2: EpCAS (Echinacea purpurea) (protein)
chain: ASTIVKNLPGFHGDLPCTIETGYIGVGADDEVQFFYYFVESERDPSRDPLIYYLTGGPGTTALYPFLFQIGPLSINYDNSTWEKLTLELNPYSWSKAANVLFVDLPAGTGFSYGTTYEATKSSDSISAQQGYEFLIKWLEENPRFLNNSLYIAGTSYMGIVVPVVTLEVYKGNERGDQPQLNVKGYAISSPLTDKFSDFNSRFEFAHRAALISDDIYKSAKNNCGGNYIYNAVENTECARSLQRFEECTSRINEANILDPLCDEDSQDPVCGEVGDKYLKYYGNDKEVQKALGVREGTIEEFVKTNQSIHYLINKEDQDCYSYDIFSTIIYHKSLVSRNCQALILSADHDFTFPYVGVEQWITSLNLPLESPWNPWFVNNQVAGYRLKYARNGYSLTYATVKGAGHSIALYKPRETWVILDEWLASNSYLSDS
notes: full-length cDNA, C-terminal 6xHis (pESC-His), S. cerevisiae BY4741, Ni-NTA purified; vacuolar targeting peptide Met1-His24
Km (purified protein [5]): 83.910 ± 7.811 µM | kcat (purified protein [5]): 0.005 ± 0.0003 s⁻¹ | Km (purified protein [6]): 53.910 ± 0.613 µM | kcat (purified protein [6]): 0.005 ± 0.00002 s⁻¹ | Km (purified protein [7]): 121.400 ± 12.163 µM | kcat (purified protein [7]): 1.09e-05 ± 8.7e-07 s⁻¹

B3: EpHTT (Echinacea purpurea) (protein)
chain: MKVVVRESTVVRPAEESPPRKLWNSSLDLTNLNGHTLVVYFYRPNGASDFFNTKLMKDTLSRMLVAFYPFAGRFKYDQHGRVETDCQGQGALFLEAESDGLIDDFGDFLPTLEYLKLIPAIDYSKGIDSFPLMVFQVTFFKCGGVSLGVGMHHHLVDGMSGLHFTNTWADMTRGLDITLPPFIDRTLLRPRDPPRPVFEHIEYQSDPTPLKVSLDETKTSFSMFKLTRNQLALLKEKAKEEGNKISYTTFEMFSAHVWKCVCKARGLPDDVETKLYLPVDGRARLQPPLPPGYFGNVIFDAAVIATAGDIKSKPIWYAAGKIHDSLARMNNDYLRSAIDYLEQHNCKKPYVDYNTNLRINSWARLPIHDADFGWGRPIFMGRTGLPSVGRVYVLPSAMDDGSLSIILGLEAEEMKVFGNLLYAI
notes: as for B1
Km (purified protein [8]): 841.967 ± 35.474 µM | kcat (purified protein [8]): 0.685 ± 0.016 s⁻¹ | Km ([1]; 0.5 mM tartaric acid): 34.760 ± 6.832 µM | kcat ([1]; 0.5 mM tartaric acid): 0.588 ± 0.064 s⁻¹ | Km ([2]; 0.5 mM tartaric acid): 22.027 ± 3.818 µM | kcat ([2]; 0.5 mM tartaric acid): 0.007 ± 0.001 s⁻¹ | Km ([3]; 0.5 mM tartaric acid): 48.010 ± 11.329 µM | kcat ([3]; 0.5 mM tartaric acid): 0.122 ± 0.011 s⁻¹ | Km [9]: 458.600 ± 80.431 µM | kcat [9]: 0.176 ± 0.052 s⁻¹ | kcat/Km [9]: 390 ± 122 M⁻¹ s⁻¹
